The source of these data is patent US11130801B2, “Method for inhibiting platelet derived growth factor signaling with C3aR or C5aR antibodies” (CASE WESTERN RESERVE UNIVERSITY, priority 2011, dated 2021).

Assay [1] concerns NIH-3T3 cells, bEND.3 ECs, TC-1 cancer cells. Description: Cell cycle assay (propidium iodide staining) of serum starved cells. It is filed as cell-based. The note with it: C5a added to serum starved cells; identical to EGF or VEGF-A. Here is the method:
Because this dependence of growth factor responsiveness on C3aR/C5aR signaling could be indirect, i.e., a consequence of its requirement for viability, we performed cell cycle assays.
(§1) Propidium iodide staining was performed as described previously […]. In brief, the cells were serum starved for 24 hrs followed by administration of 1 μM colchicine (Sigma). 16 hrs following colchicine treatment, cells were given either growth factor treatment or 17 ng/mL mC5a. After an additional 24 hrs, cells were removed from plating via Trypsin/EDTA and fixed in 0.25% Formaldehyde for 10 mins at 37° C. Cells were spun out of formaldehyde solution and resuspended in 90% methanol at 4° C. until assayed. Following removal from methanol, excess RNA was removed via treatment with RNase (Sigma) and stained with propidium iodide for 30 mins at 4° C. Cells were analyzed on an Epics XL.

Assay [2] concerns HUVEC. Description: Cell cycle assay of serum starved HUVEC. It is filed as cell-based. As to conditions: identical to adding VEGF-A. Here is the method: as §1
Because the disruptive effect of C3aR/C5aR antagonism on VEGF growth induction could be a consequence of the requirement of autocrine C3aR/C5aR signaling for EC viability, we performed cell cycle assays. […] These findings that autocrine C3aR/C5aR signaling not only prevents EC apoptosis but drives EC growth point to a bidirectional signaling mechanism wherein C3aR/C5aR GPCR signaling transactivates to VEGFR2 signaling and vice versa.

For assay [3], the system named is NIH-3T3 cells. Description: Cell cycle assay of serum starved NIH-3T3 cells (PDGF study). It is filed as cell-based. As to conditions: identical to adding PDGF. Here is the method: as §1
PDGF contributes to atherogenesis and plays a central role in neointimal proliferation following EC injury. […] Following determination of optimal PDGF-AA doses, we incubated 1×10^5 cells/well in triplicate with 30 ng/ml of PDGF-AA±10 ng/ml of C3aR and C5aR antagonists (C3aR-A/C5aR-A), 10 ng/ml of anti-C3a/anti-C5a mAbs or respective controls, after which we quantified cell growth by counting cell numbers over time. […] To directly establish whether C5aR signals augment PDGF-AA growth signaling, we 1) quantified the effect of added C5a one growth, and 2) assayed C5a in culture supernatants of PDGF-AA treated cells. […]

Assay [4] concerns VEGFR2. As to the kind of experiment: VEGFR2 phosphorylation immunoblot in serum starved primary WT aortic ECs. Format: cell-based, murine. The note with it: added C5a, relative to untreated controls. How it is done: FIG. 21 illustrates an immunoblot of VEGFR2 phosphorylation. C5a or VEGF-A was added to serum starved primary cultures of WT murine ECs in the absence or presence of C3aR-A/C5aR-A and VEGFR2 phosphorylation assessed by immunoblotting with anti […] mAb.
To directly establish whether C3aR/C5aR signaling is integral to VEGF signaling, we next evaluated phosphorylation of VEGFR2. We tested 1) how adding C5a to primary WT ECs affects VEGFR2 autophosphorylation and 2) whether VEGFR2 phosphorylation induced by added VEGF-A is affected by antagonizing C3aR/C5aR signaling. We incubated serum starved WT aortic ECs with C5a or with VEGF-A in the absence or presence of C3aR-A/C5aR-A, after which we probed immunoblots of protein lysates and anti-pVEGFR2^Y1054/1059 mAb or pan VEGFR2 antibody.

Assay [5] concerns NIH-3T3 fibroblasts. Description: PDGF-AA growth induction of NIH-3T3 fibroblasts (cell counts over time). It is filed as cell-based. As to conditions: added C5a by itself. Here is the method:
PDGF contributes to atherogenesis and plays a central role in neointimal proliferation following EC injury. In view of the growth difference of primary cultured Daf1^−/−, WT, C3aR^−/−C5aR^−/−, and C3^−/−C5^−/−SMCs, we examined whether C3aR/C5aR signals are interconnected with PDGF growth induction. For these studies, we utilized NIH-3T3 fibroblasts (which express PDGFR-αα) in conjunction with PDGF-AA. Following determination of optimal PDGF-AA doses, we incubated 1×10^5 cells/well in triplicate with 30 ng/ml of PDGF-AA±10 ng/ml of C3aR and C5aR antagonists (C3aR-A/C5aR-A), 10 ng/ml of anti-C3a/anti-C5a mAbs or respective controls, after which we quantified cell growth by counting cell numbers over time. […] To directly establish whether C5aR signals augment PDGF-AA growth signaling, we 1) quantified the effect of added C5a one growth, and 2) assayed C5a in culture supernatants of PDGF-AA treated cells. […] Because the dependence of PDGF growth induction on C3aR/C5aR signaling could be indirect, i.e., a consequence of its requirement for viability, we performed cell cycle assays.

Assay [6] has as its system HUVEC. As to the kind of experiment: Complement mRNA transcripts in HUVEC by qPCR. It is filed as cell-based. The note with it: added C3a or C5a. Here is the method:
FIG. 33 illustrates charts showing qRT-PCR analysis of C3, factor B and factor D transcripts from HUVEC under hypoxia. A) HUVEC treated with TNF-α, IL-1, and IFN-γ. Blue bars represent samples after treatment. B-C) HUVEC stimulated with C3a (10 ng/ml for 2 hr) or C5a (10 ng/ml for 30 min) Blue bars represent control without C3a/C5a stimulation while red bars represent samples after stimulation. D) HUVEC incubated for 1 hr with FCCP+IAA. Blue bars represent control without hypoxia treatment while yellow bars represent two samples after hypoxia treatment.
We next conversely assessed how transducing C3aR/C5aR signals into ECs affects endogenous EC complement production and whether it is connected with “classical” EC responses. We incubated HUVEC with 1) inflammatory cytokines, 2) the mitochondrial uncoupler protonophore carbonyl cyanide p-(trifluoromethoxy)phenylhydrazone (FCCP)+iodoacetate (IAA) (which mimics hypoxia), or 3) C3a or C5a, after which we assayed complement mRNA transcripts by qPCR. […]
ECs and leukocytes locally synthesize C3/fB/fD/C5 and the elicited C3a/C5a signal through C3aR/C5aR on the same cells to amplify this synthesis. To determine whether ECs locally synthesize AP complement components, we added IL-1/IFN-γ/TNF-α to HUVEC, 1 hr after which we quantified C3 and fB transcripts by qPCR. […]
For orientation: Quantitative PCR measures a nucleic acid by following its amplification.

Assay [7] has as its system Raji, Jurkat, U937 cells, primary mΦs, B cells, and DCs. As to the kind of experiment: AP and C5 gene transcription in leukocytes by qPCR. It is filed as cell-based. The note with it: 10 nM C5a. The text has this:
ECs and leukocytes locally synthesize C3/fB/fD/C5 and the elicited C3a/C5a signal through C3aR/C5aR on the same cells to amplify this synthesis. To determine whether ECs locally synthesize AP complement components, we added IL-1/IFN-γ/TNF-α to HUVEC, 1 hr after which we quantified C3 and fB transcripts by qPCR. […] To test whether leukocytes that are recruited to sites of EC injury locally synthesize AP components and C5a similarly feeds back in them to amplify local complement production, we stimulated Raji, Jurkat, U937 cells, primary mΦs, B cells, and DCs with 10 nM C5a. This documented induction of AP and C5 gene transcription by qPCR.

For assay [8], the system named is C5aR. Description: Proinflammatory gene transcription induced by C5aR signaling. Format: cell-based. The note with it: added C5a. An excerpt:
In view of the connections of MCP-1 and other proinflammatory cytokines with atherosclerosis and the mechanistic linkage of DAF deficiency with potentiated C3aR/C5aR transduction, we tested whether C5aR signaling induces proinflammatory gene transcription. Added C5a induced the mRNA transcription of chemotactic MCP-1/IL-8, proinflammatory IL-1β/IL-6 and growth inductive GM-CSF.

B1: C5a: complement activation fragment (anaphylatoxin) added to cells (protein, UniProt P01031 678-751, looked up)
C5a anaphylatoxin: TLQKKIEEIAAKYKHSVVKKCCYDGACVNNDETCEQRAARISLGPRCIKAFTECCVVASQLRANISHKDMQLGR
modifications: C5a anaphylatoxin
On to B1, for which the “cell cycle transition after adding C5a” value in assay [1], in assay [2] and in assay [3] was “transition from G0 into G2” throughout. Moreover, the “VEGFR2 Y1054/1059 phosphorylation” value in assay [4] is listed as “increased”. Besides, in assay [5], the “proliferation of NIH-3T3 cells” value was “induced proliferation”. The “production of AP components by ECs” value in assay [6] is “more AP components”. Besides, in assay [6], the “transcription of C3” value is “increased”. For the same molecule, the “AP and C5 gene transcription” value in assay [7] is “induction”. For the same molecule, the “mRNA transcription of MCP-1/IL-8, IL-1β/IL-6 and GM-CSF” value in assay [8] was “induced”.
